Assay [1] has as its target T1, CD300c antigen (11832-H08H, Sino Biological) (human, UniProt Q08708 21-183).
T1 construct: Bought antigen; also called CD300c protein; CD300 antigen-like family member C
T1 sequence (looked up): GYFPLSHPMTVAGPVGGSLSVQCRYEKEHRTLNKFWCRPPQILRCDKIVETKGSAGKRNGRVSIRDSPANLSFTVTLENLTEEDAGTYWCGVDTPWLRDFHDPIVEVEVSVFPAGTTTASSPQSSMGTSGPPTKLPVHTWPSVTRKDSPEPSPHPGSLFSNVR
Nature of the assay: SPR, CD300c immobilised on the chip (399.2 RU), CL7 as analyte at 0-6.25 µg/mL; CD300c on the chip, CL7 as analyte. How it is done:
In order to identify the binding affinity between the antigen CD300c and the anti-CD300c monoclonal antibody CL7, a surface plasmon resonance experiment was performed.
To immobilize CD300c on a […], 5 μg/mL of CD300c was diluted in 10 mM acetate buffer (pH 5.5). Then, the flow rates were all set equally to […], and the target RU was respectively set to 300 RU. […] by a mixture of 0.2 M EDC and 0.05 M NHS, and blocked with 1 M ethanolamine to perform the immobilization so that the final RU of CD300c became 399.2 RU. Then, CL7 was diluted in PBSP to concentrations of 0, 0.195, 0.39, 0.78, 1.56, 3.125, and 6.25 μg/mL, separately. […] Subsequently, 50 mM NaOH was allowed to flow at a rate of 30 μL/min for 30 seconds to regenerate the surface.

The target of assay [2] is T2, CD300c on the surface of cells (human, UniProt Q08708 21-224).
T2 construct: whole, on cells; also called cellular antigen
T2 sequence (looked up): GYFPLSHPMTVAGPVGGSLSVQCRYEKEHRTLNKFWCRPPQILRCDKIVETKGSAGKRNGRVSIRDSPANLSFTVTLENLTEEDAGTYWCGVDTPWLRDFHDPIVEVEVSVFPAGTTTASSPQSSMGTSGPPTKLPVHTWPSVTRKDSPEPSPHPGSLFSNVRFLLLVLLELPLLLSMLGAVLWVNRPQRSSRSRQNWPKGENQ
Put plainly: flow cytometry (FACS binding) on THP-1 cells overexpressing CD300c, FITC anti-human IgG (H+L), MFI. The procedure: (§1) In order to identify whether the anti-CD300c monoclonal antibody (CL7) recognizes a cellular antigen, FACS binding was performed.
(§2) Then, the cells were incubated with the anti-CD300c monoclonal antibody, which was serially diluted 3-fold starting from 10 μg/mL, in a CO₂ incubator for 30 minutes, and washed twice with FACS buffer. Then, the cells were incubated with FITC-conjugated anti-human IgG (H+L), which was diluted 1:100 in FACS buffer, in a CO₂ incubator for 30 minutes, and washed twice with FACS buffer. Subsequently, FITC signals were measured with a CytoFLEX instrument manufactured by Beckman Coulter, Inc., and then the MFI values were obtained using CytExpert program.

Assay [3] concerns the target T2, CD300c on the surface of cells. Nature of the assay: flow cytometry (FACS binding) on 293T cells overexpressing CD300c, FITC anti-human IgG (H+L), MFI. How it is done:
as §1, §2
For orientation: A flow cytometer gives signals particle by particle.

For assay [4], the target named is T1, CD300c antigen (11832-H08H, Sino …). Nature of the assay: binding ELISA, plate coated with CD300c antigen (8 µg/mL), HRP anti-Fc IgG detection. The procedure:
In order to identify the antigen-binding ability of the anti-CD300c monoclonal antibodies produced in Example 1, binding ELISA was performed. Specifically, a CD300c antigen (11832-H08H, Sino Biological) or a CD300a antigen (12449-H08H, Sino Biological) in a coating buffer (0.1 M sodium carbonate, pH 9.0) was dispensed into an ELISA plate at a concentration of 8 μg/mL per well, followed by incubation at room temperature for 3 hours to allow the antigen to be bound to the plate. The unbound antigens were removed by washing three times using phosphate buffered saline-Tween 20 (PBST), and then 300 μL of PBST supplemented with 5% bovine serum albumin (BSA) was added to each well, followed by incubation at room temperature for 1 hour and then washing using PBST. Then, an anti-CD300c monoclonal antibody was diluted in quadruplicate and added thereto, followed by incubation for 1 hour at room temperature for antigen binding. After 1 hour, washing was performed three times using PBST to remove unbound anti-CD300c monoclonal antibody, and then 4 μg/mL of an antibody for detection (HRP conjugated anti-Fc IgG) was added, followed by incubation again at room temperature for 1 hour. Subsequently, the unbound antibody for detection was removed using PBST, and then TMB solution was added, followed by incubation for 10 minutes for development. Then, 2 N sulfuric acid solution was added to terminate the development reaction, and the absorbance was measured at 450 nm to identify the antibodies specifically binding to the CD300c antigen.
For orientation: In an ELISA, binding on a coated surface is turned into a signal by an enzyme label.

Another assay concerns the target T3, mouse CD300c (mouse).
T3 sequence (A2A7V7 whole entry, looked up): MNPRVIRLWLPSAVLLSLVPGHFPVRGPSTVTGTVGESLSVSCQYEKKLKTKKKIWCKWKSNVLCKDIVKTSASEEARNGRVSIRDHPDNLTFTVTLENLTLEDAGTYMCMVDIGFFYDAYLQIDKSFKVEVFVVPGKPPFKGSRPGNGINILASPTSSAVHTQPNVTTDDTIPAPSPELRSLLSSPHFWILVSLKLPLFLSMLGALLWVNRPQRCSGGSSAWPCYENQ
Put plainly: cell-based or functional assay.

In assay [5] the target is T1, CD300c antigen (11832-H08H, Sino …). Nature of the assay: binding ELISA on coated CD300c antigen (800 ng/mL), anti-Fc secondary antibody, 450 nm (Experimental Example 2.3). How it is done: CD300c antigen (250 ug/mL) was diluted to a concentration of 800 ng/mL in coating buffer (0.1 M sodium carbon ate, pH 9.0), placed into a 96-well microplate at 100 μL per well, and incubated at 4° C. overnight. The next day, the microplate was washed three times with 200 μL of PBST. Thereafter, 200 μL of a blocking buffer (5% skim milk) was added thereto, followed by blocking at room temperature for 1 hour. The anti-CD300c monoclonal antibody CL7 was diluted to 200 μg/mL in PBS, and the concentration thereof was checked by measurement using Nanodrop (product name: NanoDrop One/One, manufactured by Thermo Fisher Scientific). Subsequently, CL7 was diluted in quadruplicate with PBS starting from 10 μg/mL, and added at 100 μL each, followed by incubation at room temperature for 1 hour. After the incubation, the microplate was washed three times with […] of PBST. A secondary antibody (conjugated anti-Fc IgG) was diluted 1:10,000 in blocking buffer, and added at 100 μL, followed by incubation at room temperature for 1 hour, and then washed three times with 200 μL of PBST. Subsequently, TMB and hydrogen peroxide were mixed 1:1, and added at 100 μL per well, followed by incubation at room temperature for 7 to 9 minutes.

For orientation: Kd means the concentration at which binding is half-saturated. Read a high Kd as a looser complex. In general, EC50 refers to the concentration giving half of the maximal effect. Low readings indicate an effect from little substance, high ones a need for much substance. For orientation: EC50 (read off the curve) means the concentration at which the effect is half-maximal. The low end stands for greater potency, the high end for weaker potency.

B1: CL7 (antibody, V domains shown)
VH: EVQLLESGGGLVQPGGSLRLSCAASGFTFSRYAMSWVRQAPGKGLEWVSAISGSGGSTYYADSVKGRFTISRDNSKNTLYLQMNSLRAEDTAVYYCARSSQGIFDIWGQGTLVTVSS
VL: QSVLTQPPSASGTPGQRVTISCSGNNIGTRRVHWYQQLPDTAPKLLIYSKNNRPSGVPDRFSGSKSGTSASLAISGLRSEDEADYYCAAWDDSLSGPVFGGGTKLTVL
notes: detected with anti-human IgG (H+L) and anti-Fc IgG; also called anti-CD300c monoclonal antibody CL7; anti-CD300c monoclonal antibody (CL7)
As for B1, the Kd in assay [1] was determined as 0.52 nM. Further, the figures for the EC50 in assay [2], in assay [3] and in assay [4] were 2.6 nM, 2.7 nM and 0.047 µg/mL, respectively. The “cancer cell proliferation inhibitory effect, CT26 mouse colon cancer cells, 10 ug/mL antibody, 5 days, CCK-8” value in the assay with mouse CD300c is 66%. Besides, the “EC50 (read off the curve)” value in assay [5] was ~0.06 µg/mL.

Source of the values: patent US20240254220A1 (CENTRICSBIO, published 2024).
